Source: article PMC7946963, “Phosphorylation regulates the binding of autophagy receptors to FIP200 Claw domain for selective autophagy initiation” (Nature Communications, 2021)

Legend:
Assay in all cases: fluorescence polarisation titration
Conditions in all cases: reference: unphosphorylated CCPG1 FIR2 peptide; sites S104
LC3C = LC3C (UniProt Q9BXW4)
LC3B = LC3B (UniProt Q9GZQ8)
LC3A = LC3A (UniProt Q9H492)
[1] = target: FIP200 (RB1CC1) Claw domain, 1490-1594 (UniProt Q8TDY2)
GABARAPL2 = GABARAPL2 (UniProt P60520)
GABARAPL1 = GABARAPL1 (UniProt Q9H0R8)

Measured: binding against the reference

CCPG1 FIR2, 99-113 (from UniProt Q9ULG6) pS104 CCPG1 FIR2 peptide
stronger: all assays above
